In US20250135048A1, “Fibroblast activation protein compound or salt with albumin dual-binding function” (National Atomic Research Institute, priority 2023, published 2025):

Columns and labels:
[1] = system: HEK-293 human embryonic kidney cancer cells expressing FAP (HEK-293-FAP cells) tumor; assay: nanoSPECT/CT imaging biodistribution in tumor of HEK-293-FAP tumor-bearing mice; conditions: BALB/c nude mice, nanoSPECT/CT semi-quantification
Experimental: (§1) The HEK-293 human embryonic kidney cancer cells expressing FAP (HEK-293-FAP cells) are inoculated with 4×10^6 cells at the forward right flanks of BALB/c nude mice. […] These drugs are prepared to about 100 μL volume in normal saline. The nanoSPECT/CT imaging is performed at 1, 4, and 24 h after the intravenously administrated via tail vein.
(§2) The nanoSPECT/CT imaging is performed at 1, 4, and 24 h after administration to monitor the distribution of radiopharmaceuticals in the animal. The images are semi-quantification by using imaging analysis software. The SPECT count value of reference source is obtained by using imaging analysis software. […] The SPECT count value is obtained from region of image of each target organ, and obtained the activity/volume of each target organ by using the conversion formula.

[2] = nanoSPECT/CT imaging biodistribution in blood of heart of HEK-293-FAP tumor-bearing mice; conditions: BALB/c nude mice, nanoSPECT/CT semi-quantification
Experimental: as §1, §2

[3] = 1 h after intravenous administration via tail vein
[4] = 4 h after intravenous administration via tail vein
[5] = 24 h after intravenous administration via tail vein

| SMILES | Tumor biodistribution value [1, 3] [% ID/mL] | Tumor biodistribution value [1, 4] [% ID/mL] | Tumor biodistribution value [1, 5] [% ID/mL] | Blood of heart biodistribution value [2, 3] [% ID/mL] | Blood of heart biodistribution value [2, 4] [% ID/mL] | Blood of heart biodistribution value [2, 5] [% ID/mL] |
| --- | --- | --- | --- | --- | --- | --- |
| CN(CCCN1CCN(C(=O)[C@H](COCCNC(=O)CCCc2ccc(I)cc2)NC(=O)[C@H](CCCCSC2CC(=O)N(CCC(=O)N[C@@H](CCCCN)C(=O)N[C@@H](CCCCN)C(=O)N[C@@H](CCCCN)C(=O)N[C@@H](CCCCN)C(=O)N[C@@H](CCCCN)C(=O)N[C@@H](CCCCN)C(=O)N[C@@H](CCCCN)C(=O)N[C@@H](CCCCN)C(=O)O)C2=O)NC(=O)CNC(=O)CN2CCN(CC(=O)O)CCN(CC(=O)O)CCN(CC(=O)O)CC2)CC1)c1ccc2nccc(C(=O)NCC(=O)N3CC(F)(F)C[C@H]3C#N)c2c1 (stereo partly drawn) [Lu-177-INER-FAPI-1.12, metal not drawn] | 4.71 | 5.08 | 4.21 | 16.19 | 13.33 | 5.50 |
| CN(CCCN1CCN(C(=O)[C@H](COCCNC(=O)CCCc2ccc(I)cc2)NC(=O)[C@H](CCCCSC2CC(=O)N(CCC(=O)N[C@@H](CCCCN)C(=O)N[C@@H](CCCCN)C(=O)N[C@@H](CCCCN)C(=O)N[C@@H](CCCCN)C(=O)N[C@@H](CCCCN)C(=O)N[C@@H](CCCCN)C(=O)N[C@@H](CCCCN)C(=O)N[C@@H](CCCCN)C(=O)N[C@@H](CCCCN)C(=O)N[C@@H](CCCCN)C(=O)N[C@@H](CCCCN)C(=O)N[C@@H](CCCCN)C(=O)O)C2=O)NC(=O)CNC(=O)CN2CCN(CC(=O)O)CCN(CC(=O)O)CCN(CC(=O)O)CC2)CC1)c1ccc2nccc(C(=O)NCC(=O)N3CC(F)(F)C[C@H]3C#N)c2c1 (stereo partly drawn) [Lu-177-INER-FAPI-1.13, metal not drawn] | 8.03 | 8.54 | 5.44 | 15.70 | 12.33 | 5.44 |
| CN(CCCN1CCN(C(=O)[C@H](COCCNC(=O)CCCc2ccc(I)cc2)NC(=O)[C@H](CCCCSC2CC(=O)N(CCC(=O)N[C@@H](CCCNC(=N)N)C(=O)N[C@@H](CCCNC(=N)N)C(=O)N[C@@H](CCCNC(=N)N)C(=O)N[C@@H](CCCNC(=N)N)C(=O)N[C@@H](CCCNC(=N)N)C(=O)N[C@@H](CCCNC(=N)N)C(=O)N[C@@H](CCCNC(=N)N)C(=O)N[C@@H](CCCNC(=N)N)C(=O)N[C@@H](CCCNC(=N)N)C(=O)N[C@@H](CCCNC(=N)N)C(=O)N[C@@H](CCCNC(=N)N)C(=O)N[C@@H](CCCNC(=N)N)C(=O)O)C2=O)NC(=O)CNC(=O)CN2CCN(CC(=O)O)CCN(CC(=O)O)CCN(CC(=O)O)CC2)CC1)c1ccc2nccc(C(=O)NCC(=O)N3CC(F)(F)C[C@H]3C#N)c2c1 (stereo partly drawn) [Lu-177-INER-FAPI-1.23, metal not drawn] | 6.58 | 5.96 | 3.23 | 10.54 | 8.89 | 3.49 |
